Data set [1] deals with His6-tagged mSecA1 (Arabidopsis) (UniProt Q9SYI0).
Substrate in data set [2]: Nc1ncnc2c1ncn2[C@@H]1O[C@H](COP(=O)(O)OP(=O)(O)OP(=O)(O)O)[C@@H](O)[C@H]1O
In words: ATPase, NADH-coupled (pyruvate kinase / lactate dehydrogenase); radicicol-sensitive activity. The data set is classed as biochemical, Arabidopsis thaliana. Conditions: pH 7.5, 5 mM MgCl2, 500 mM KCl, HSP90C alone, called ATP binding affinity.

Sequence of His6-tagged mSecA1 (Arabidopsis) (Q9SYI0 73-1022): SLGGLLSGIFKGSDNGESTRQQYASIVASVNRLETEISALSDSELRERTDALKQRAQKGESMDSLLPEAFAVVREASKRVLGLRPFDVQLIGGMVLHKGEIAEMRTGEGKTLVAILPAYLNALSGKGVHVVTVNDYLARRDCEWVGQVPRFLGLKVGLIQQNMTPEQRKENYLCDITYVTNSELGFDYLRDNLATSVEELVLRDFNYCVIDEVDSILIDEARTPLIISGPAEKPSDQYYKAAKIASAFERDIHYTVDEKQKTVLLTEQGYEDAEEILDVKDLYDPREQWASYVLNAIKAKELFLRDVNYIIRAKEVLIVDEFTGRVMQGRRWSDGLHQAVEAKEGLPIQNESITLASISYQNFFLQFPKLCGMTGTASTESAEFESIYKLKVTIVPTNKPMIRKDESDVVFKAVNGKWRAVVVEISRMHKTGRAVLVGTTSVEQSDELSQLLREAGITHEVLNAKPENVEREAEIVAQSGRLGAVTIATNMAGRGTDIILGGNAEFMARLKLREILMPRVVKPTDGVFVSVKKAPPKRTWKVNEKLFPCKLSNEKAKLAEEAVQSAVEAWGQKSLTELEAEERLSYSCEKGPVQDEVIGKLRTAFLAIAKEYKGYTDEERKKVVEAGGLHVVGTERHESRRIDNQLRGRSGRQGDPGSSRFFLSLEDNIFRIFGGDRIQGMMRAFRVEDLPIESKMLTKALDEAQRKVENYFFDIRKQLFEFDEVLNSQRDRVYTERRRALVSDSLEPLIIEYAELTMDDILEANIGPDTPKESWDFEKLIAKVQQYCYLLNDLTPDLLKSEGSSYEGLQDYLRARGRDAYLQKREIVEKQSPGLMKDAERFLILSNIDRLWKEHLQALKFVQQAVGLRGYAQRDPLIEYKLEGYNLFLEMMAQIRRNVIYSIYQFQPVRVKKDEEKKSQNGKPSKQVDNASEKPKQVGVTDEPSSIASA

Take “His6-tagged HSP90C (from UniProt Q9SIF2 61-780) (natural protein)”: in data set [1], the combined ATP turnover rate (kcat) of the equimolar mixture SecA1 + HSP90C (1.41 μM each), NADH-coupled assay at 5 mM ATP; sum of the two proteins' own average rates 2.93 min^−1 was 0.0581 s⁻¹ and the rise of the ATP turnover rate of SecA1 + HSP90C + PsbO1 (equimolar) relative to the SecA1 + HSP90C mixture, NADH-coupled assay stood at 16%.

B1: HSP90C (Arabidopsis thaliana) (protein)
chain: CDAAVAEKETTEEGSGEKFEYQAEVSRLLDLIVHSLYSHKEVFLRELVSNASDALDKLRFLSVTEPSLLGDGGDLEIRIKPDPDNGTITITDTGIGMTKEELIDCLGTIAQSGTSKFLKALKENKDLGADNGLIGQFGVGFYSAFLVAEKVVVSTKSPKSDKQYVWESVADSSSYLIREETDPDNILRRGTQITLYLREDDKYEFAESTRIKNLVKNYSQFVGFPIYTWQEKSRTIEVEEDEPVKEGEEGEPKKKKTTKTEKYWDWELANETKPLWMRNSKEVEKGEYNEFYKKAFNEFLDPLAHTHFTTEGEVEFRSILYIPGMGPLNNEDVTNPKTKNIRLYVKRVFISDDFDGELFPRYLSFVKGVVDSDDLPLNVSREILQESRIVRIMRKRLIRKTFDMIQEISESENKEDYKKFWENFGRFLKLGCIEDTGNHKRITPLLRFFSSKNEEELTSLDDYIENMGENQKAIYYLATDSLKSAKSAPFLEKLIQKDIEVLYLVEPIDEVAIQNLQTYKEKKFVDISKEDLELGDEDEVKDREAKQEFNLLCDWIKQQLGDKVAKVQVSNRLSSSPCVLVSGKFGWSANMERLMKAQALGDTSSLEFMRGRRILEINPDHPIIKDLNAACKNAPESTEATRVVDLLYDTAIISSGFTPDSPAELGNKIYEMMAMAVGGRWGRVEEEEESSTVNEGDDKSGETEVVEPSEVRAESDPWQD
notes: His6-tagged HSP90C (pProEX HTb), E. coli BL21(DE3)-pRIL, Ni-NTA and Superdex 200
As usually defined, the Km is the substrate concentration at which the rate is half of its maximum. With B1, the Km in data set [2] was found to be 4.01 mM.
